Assay results taken from patent EP3492597A2.

Target: human hepatocyte growth factor receptor (hHGFR) (human) (UniProt P08581)
Assay: cell-based or functional assay

Sequence of UniProt P08581 (P08581 25-1390): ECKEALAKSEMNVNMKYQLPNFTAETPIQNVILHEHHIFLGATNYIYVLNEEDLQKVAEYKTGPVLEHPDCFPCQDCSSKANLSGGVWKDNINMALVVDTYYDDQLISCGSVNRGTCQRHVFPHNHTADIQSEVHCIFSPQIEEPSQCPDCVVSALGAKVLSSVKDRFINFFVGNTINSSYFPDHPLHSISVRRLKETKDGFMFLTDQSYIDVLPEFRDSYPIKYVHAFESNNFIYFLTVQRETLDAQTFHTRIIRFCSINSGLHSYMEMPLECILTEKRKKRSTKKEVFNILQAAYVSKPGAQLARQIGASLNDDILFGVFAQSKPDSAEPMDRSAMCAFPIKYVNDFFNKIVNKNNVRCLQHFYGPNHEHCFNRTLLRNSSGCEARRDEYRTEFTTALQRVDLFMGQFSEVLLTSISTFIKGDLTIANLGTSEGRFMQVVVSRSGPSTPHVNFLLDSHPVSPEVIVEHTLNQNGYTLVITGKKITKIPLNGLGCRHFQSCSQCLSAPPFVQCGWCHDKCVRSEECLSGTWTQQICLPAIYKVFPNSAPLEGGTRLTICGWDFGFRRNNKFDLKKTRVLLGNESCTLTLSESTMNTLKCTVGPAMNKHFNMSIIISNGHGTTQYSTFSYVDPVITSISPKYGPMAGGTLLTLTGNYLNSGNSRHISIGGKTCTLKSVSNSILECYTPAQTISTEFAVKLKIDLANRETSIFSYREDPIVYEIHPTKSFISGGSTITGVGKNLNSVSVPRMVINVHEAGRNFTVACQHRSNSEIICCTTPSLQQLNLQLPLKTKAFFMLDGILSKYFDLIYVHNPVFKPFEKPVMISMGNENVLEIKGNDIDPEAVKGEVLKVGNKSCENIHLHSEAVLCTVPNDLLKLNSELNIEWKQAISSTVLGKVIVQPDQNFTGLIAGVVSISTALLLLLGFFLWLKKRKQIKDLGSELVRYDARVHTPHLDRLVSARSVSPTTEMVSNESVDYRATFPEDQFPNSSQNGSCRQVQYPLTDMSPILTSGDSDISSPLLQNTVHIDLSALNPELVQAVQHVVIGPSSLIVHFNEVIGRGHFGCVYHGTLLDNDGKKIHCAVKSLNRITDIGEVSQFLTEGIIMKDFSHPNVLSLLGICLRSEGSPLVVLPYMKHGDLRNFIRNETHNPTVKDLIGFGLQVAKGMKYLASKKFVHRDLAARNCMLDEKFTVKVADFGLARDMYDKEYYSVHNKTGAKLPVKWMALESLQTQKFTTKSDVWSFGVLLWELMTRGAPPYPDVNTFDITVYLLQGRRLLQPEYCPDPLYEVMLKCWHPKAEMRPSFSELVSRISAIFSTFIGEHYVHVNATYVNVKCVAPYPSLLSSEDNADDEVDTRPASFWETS

Row | Substance | transduction of T47D+hHGFR cells against parental T47D cells [fold] | transduction efficiency (EGFP expression, 72 hr) in T47D+hHGFR cells against T47D cells [fold]
1 | S663V+T492V mutant AAV3 capsid (rAAV3-S663V+T492V vector) | > 5 | –
2 | Y705+731F double-mutant AAV3 capsid (Y705+731F scAAV3-CBAp-EGFP vector) | > 5 | –
3 | wild-type AAV3 capsid (scAAV3-CBAp-EGFP vector) | > 5 | 8 to 13
